Values of other authors in paper PMC7761212.

Molecular target: rice hemoglobin (Oryza sativa) (UniProt O04986)

rice hemoglobin, sequence (O04986 whole entry): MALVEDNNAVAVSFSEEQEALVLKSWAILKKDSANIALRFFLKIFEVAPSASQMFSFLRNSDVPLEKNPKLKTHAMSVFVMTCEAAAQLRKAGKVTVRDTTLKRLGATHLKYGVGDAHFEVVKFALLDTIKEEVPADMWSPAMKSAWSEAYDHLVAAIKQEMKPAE

Kd: 80 µM
Substance: rice hemoglobin (from UniProt O04986)
